Assay results from the supplement of paper PMC9170038.

tested on: MS2 coat protein; test: apparent KD of MS2 coat protein; higher = weaker reporter binding; details: Eterna round: R107; input ligand: arginine 13.2 mM
Method: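 RNA-MaP round R107: designed RNA switches with theophylline, tryptophan, arginine or FMN aptamers are transcribed on-chip within common flanks. They are titrated with SNAP-549-labelled MS2 coat protein in RNA-MaP buffer (100 mM Tris pH 7.5, 80 mM KCl, 4 mM MgCl2), without ligand or with the indicated ligand. Median apparent KD per design.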

Row | Sequence | apparent KD of MS2 coat protein [nM]
1 | AAAAGAGGUGGAAGGAGCGGGAGACAUGAGGAUCACCCAUGUGAAGUGACGAAAGGAUCAGCCCAGGUAGGUCGCCAUGUCGAAA [yuiiumullin] | 31
2 | CCGGCCGCAUGAAGGAGCGCACAGCGCUCGCACAUGAGGAUCACCCAUGUAAAUGGGUGCGUGCAGGUAGGUCGCAUGCAGGCAA [Lesobete] | 133
3 | AUGGCGUUGGUGUAGCUGUGAAAUGGCGAUACCAGCGUGGAAACACGCCCUUGGCAGCGCCAAAACAUGAGGAUCACCCAUGUUA [Hradec] | 16.6
4 | AUAUUAAAGAGUGAUACCAGACUACAUGAGGAUCACCCAUGUUACAUUUAAAUAUCAUUUGUCCCUUGGCAGCACAUUAAGUACA [JR_Nu_ExcTheophyB_Sub022] | 20.9
5 | GGAUUACGAAAGUAGUCCUCAAGUUCGAGACGAGGACCGGUACGGCCGCCACUCGAACAUGAGGAUCACCCAUGUAGCGAAAGCU [Tryptophan A 22] | 86.6
6 | AUCAUGUAAUCAGAUACCAGACAUCUUUUAAUACAUAUUACAUGAGGAUCACCCAUGUUGGUCCCUUGGCAGCUGAAAUAUUUUU [JR_Nu_SSTheophyB_Sub027] | 128
7 | ACAUGAGGAUCACCCAUGUAAUUGCCGGAAGGAGCGUCAUUAAGGACAGGUAGGUCGCUGGUAGGGUCGUCGGUUACGGCGGCCA [SSArg A #10] | 13.3
8 | GGGUACAUCGCGGCCGCCACUCAUGUAAAUGCAUGAGGAUCACCCAUGUCGAUGGAGACAUCGGAGAGGACCGGGUGAUGUACCG | 108
9 | UGUUAUUUCCGAAGGAGCGGGAUACAUGAGGAUCACCCAUGUACAUGAGGAUCAACAUGAACCCAGGUAGGUCGCGGAUUUUGUC [Exclusion Arginine B 3] | 34.1
10 | CGCCACAUGAGGAUCACCCAUGUAAUGGCGCGAGGACCGGUACGGCCGCCACUCGCCUGGCAGUGAGCGCAUGCGGCCUGGGUAU [Exclusion Tryp A GF9] | 12.2
11 | ACAUGAGGAUCACCCAUGUAGCCUAGGGAAGGAGCGUCGUAAGAGACAGGUAGGUCGCCCGCAUGUGGAUCACCCAUGUCGAGGG [SSArg A #11] | 27.4
12 | UGACAUGAGGAUCACCCAUGUUUAGAUGAACGAGGACCGGUACGGCCGCCACUCGAUAAGUGGAAAGAGCGAGGGAUCGCAUGCU [Same State Trp A GF5] | 12.1
13 | UCGCUCUGGGUGAAUCCCAGAGAUGUGGAAGGAGCGGACGAAAGUCCAGGUAGGUCGCCAUCGAACAUGAGGAUCACCCAUGUAC [Same State - Arginine A (Freestyle 26)] | 42.7
14 | ACUAGUUGUGCAGAUACCAGACAUGAGGAUCACCCAUGUUUGGGAUCUAAUGAUCAUCUUGUCCCUUGGCAGCUGUACAUCUAGA [Omei Theo B Exc v1] | 27.1
15 | AGCCACUCGAGUGAUCCUCACGAGUGGCUACGAGGACCGGUACGGCCGCCACUCGAAUUAACAUGAGGAUCACCCAUGUAAUCAU [Brourdmod04] | 97.8
16 | UCGCCCGGGUCGGCCGCCACUGCGGUGAUGUGACAUGAGGAUCACCCAUGUUGUCAUGUGGCACAUAGGACCGGGACCCGGGCGA [Exclusion - Tryptophan B Attempt #4 (HarryS)] | 23.2
17 | CUUGUGGGCGGAAGGAGCGCGAUUACAUAACAUGAGGAUCACCCAUGUAAGAAAUUAUUCAUGCAGGUAGGUCGCCGUUCGUGGG [Same State Arginine B GF9] | 24.8
18 | CGGUUUGUGAUGGAUACCAGCAGAGAAAAUGUUUAUCCUGACAUGAGGAUCACCCAUGUGUGCCCUUGGCAGCUGUUGUGGGCUG [8.X] | 57.3
19 | CGUAAACAUGAGGAUCACCCAUGUGAUGAUACCAGCACGAUUAACUGCCCUUGGCAGCAUGUAUUGUACGACUUAUUGCCCAUCG [theeternabot_sameState_MS2_Theo_A_15] | 15.4
20 | GACAUGAGGAUCACCCAUGUUGACUAUGAAGGAGCGUCGGAAAUGACAGGUAGGUCGCAUAGUCGACCUUGUAUUUUGUGUGUUU [EAA #9] | 12.7
21 | UGCAUCAUAAUCAUGUUGGUGCUAGGUGAUACCAGCAUCGAAAGAUGCCCUUGGCAGCACCAACAUGAGGAUCACCCAUGUAAUA [(MT)''-(M)'-(T')-(Theo)-(Ms2)_Design1/22_2] | 69.2
22 | CUUGUGCUGACGGCCGCCACUUUAUGGGAGUCCUGUUCUGAUUGAUACAUGAGGAUCACCCAUGUAAGGACCGGGUCGUACCAUA [theeternabot_exclusion_MS2_Trp_B_22] | 22.7
23 | UUCAGCUAGUCGGCCGCCACUACUUGAGGAUCACCCAAGUAAUCCUAACACUGCUUCGGCAGUGGUAGGACCGGGACUAGCUGAG | 8.78
24 | UUAAUCAUGGAUGAAAACAUUUAUGCAGAAGGAGCGUGAUAAAACACAGGUAGGUCGCUGAAGGGAACAUGAGGAUCACCCAUGU [AstrosSSArgA#17] | 35.9
25 | CCUAUGCAGUCGGCCGCCACUGAUAAAAUUAUUUUUACCUCAGAAACAUGAGGAUCACCCAUGUACAGGACCGGGACUGUAUAGG [Ex Tryptophan B 17] | 24.2
26 | AGGCAGUAGGUGAUCCACUGCCAAGGUGAUACCAGCAUCGAAAGAUGCCCUUGGCAGCACCAACAUGAGGAUCACCCAUGUAAUA [(MT)''-(M)'-(T')-(Theo)-(Ms2)_Design1/22_9] | 36.9
27 | GGAGUAGAUGCGGCCGCCACUUUCUCAAGACACUACAUGAGGAUCACCCAUGUCCAUUCUACACUAAGGACCGGGCAUCCCAUGG [Alaa] | 36.8
28 | CUCGAGUUAUGAGAUACCAGACUAUAGUUUACAUGAGGAUCACCCAUGUUAUGGGUGGUAGUCCCUUGGCAGCUCAUAUGUUUAA [#06 Exclusion-TheophyllineB] | 210
29 | UUCUUUAAGUCGGCCGCCACUGAAACAUGAGGAUCACCCAUGUAUAUUUGUGUAAAGGUGGAUUACAGGACCGGGACUAUAGUAA [JR_Nu23_ExcTryptoB_Sub024] | 12.1

same assay, conditions: Eterna round: R107; input ligand: none

Row | Sequence | apparent KD of MS2 coat protein [nM]
30 | AAAAGAGGUGGAAGGAGCGGGAGACAUGAGGAUCACCCAUGUGAAGUGACGAAAGGAUCAGCCCAGGUAGGUCGCCAUGUCGAAA [yuiiumullin] | 43.9
31 | CCGGCCGCAUGAAGGAGCGCACAGCGCUCGCACAUGAGGAUCACCCAUGUAAAUGGGUGCGUGCAGGUAGGUCGCAUGCAGGCAA [Lesobete] | 313
32 | GGAUUACGAAAGUAGUCCUCAAGUUCGAGACGAGGACCGGUACGGCCGCCACUCGAACAUGAGGAUCACCCAUGUAGCGAAAGCU [Tryptophan A 22] | 195
33 | ACAUGAGGAUCACCCAUGUAAUUGCCGGAAGGAGCGUCAUUAAGGACAGGUAGGUCGCUGGUAGGGUCGUCGGUUACGGCGGCCA [SSArg A #10] | 11.1
34 | GGGUACAUCGCGGCCGCCACUCAUGUAAAUGCAUGAGGAUCACCCAUGUCGAUGGAGACAUCGGAGAGGACCGGGUGAUGUACCG | 259
35 | UGUUAUUUCCGAAGGAGCGGGAUACAUGAGGAUCACCCAUGUACAUGAGGAUCAACAUGAACCCAGGUAGGUCGCGGAUUUUGUC [Exclusion Arginine B 3] | 405
36 | CGCCACAUGAGGAUCACCCAUGUAAUGGCGCGAGGACCGGUACGGCCGCCACUCGCCUGGCAGUGAGCGCAUGCGGCCUGGGUAU [Exclusion Tryp A GF9] | 10.6
37 | ACAUGAGGAUCACCCAUGUAGCCUAGGGAAGGAGCGUCGUAAGAGACAGGUAGGUCGCCCGCAUGUGGAUCACCCAUGUCGAGGG [SSArg A #11] | 37.5
38 | UGACAUGAGGAUCACCCAUGUUUAGAUGAACGAGGACCGGUACGGCCGCCACUCGAUAAGUGGAAAGAGCGAGGGAUCGCAUGCU [Same State Trp A GF5] | 12.9
39 | UCGCUCUGGGUGAAUCCCAGAGAUGUGGAAGGAGCGGACGAAAGUCCAGGUAGGUCGCCAUCGAACAUGAGGAUCACCCAUGUAC [Same State - Arginine A (Freestyle 26)] | 46
40 | CUUGUGGGCGGAAGGAGCGCGAUUACAUAACAUGAGGAUCACCCAUGUAAGAAAUUAUUCAUGCAGGUAGGUCGCCGUUCGUGGG [Same State Arginine B GF9] | 23.8
41 | GACAUGAGGAUCACCCAUGUUGACUAUGAAGGAGCGUCGGAAAUGACAGGUAGGUCGCAUAGUCGACCUUGUAUUUUGUGUGUUU [EAA #9] | 10.4
42 | UUCAGCUAGUCGGCCGCCACUACUUGAGGAUCACCCAAGUAAUCCUAACACUGCUUCGGCAGUGGUAGGACCGGGACUAGCUGAG | 10.9
43 | UUAAUCAUGGAUGAAAACAUUUAUGCAGAAGGAGCGUGAUAAAACACAGGUAGGUCGCUGAAGGGAACAUGAGGAUCACCCAUGU [AstrosSSArgA#17] | 65.1

same assay, conditions: Eterna round: R107; input ligand: theophylline 20 uM

Row | Sequence | apparent KD of MS2 coat protein [nM]
44 | AAAAGAGGUGGAAGGAGCGGGAGACAUGAGGAUCACCCAUGUGAAGUGACGAAAGGAUCAGCCCAGGUAGGUCGCCAUGUCGAAA [yuiiumullin] | 73.2
45 | CCGGCCGCAUGAAGGAGCGCACAGCGCUCGCACAUGAGGAUCACCCAUGUAAAUGGGUGCGUGCAGGUAGGUCGCAUGCAGGCAA [Lesobete] | 544
46 | AUGGCGUUGGUGUAGCUGUGAAAUGGCGAUACCAGCGUGGAAACACGCCCUUGGCAGCGCCAAAACAUGAGGAUCACCCAUGUUA [Hradec] | 45.1
47 | AUAUUAAAGAGUGAUACCAGACUACAUGAGGAUCACCCAUGUUACAUUUAAAUAUCAUUUGUCCCUUGGCAGCACAUUAAGUACA [JR_Nu_ExcTheophyB_Sub022] | 22.1
48 | GGAUUACGAAAGUAGUCCUCAAGUUCGAGACGAGGACCGGUACGGCCGCCACUCGAACAUGAGGAUCACCCAUGUAGCGAAAGCU [Tryptophan A 22] | 382
49 | AUCAUGUAAUCAGAUACCAGACAUCUUUUAAUACAUAUUACAUGAGGAUCACCCAUGUUGGUCCCUUGGCAGCUGAAAUAUUUUU [JR_Nu_SSTheophyB_Sub027] | 191
50 | ACAUGAGGAUCACCCAUGUAAUUGCCGGAAGGAGCGUCAUUAAGGACAGGUAGGUCGCUGGUAGGGUCGUCGGUUACGGCGGCCA [SSArg A #10] | 16.8
51 | GGGUACAUCGCGGCCGCCACUCAUGUAAAUGCAUGAGGAUCACCCAUGUCGAUGGAGACAUCGGAGAGGACCGGGUGAUGUACCG | 268
52 | UGUUAUUUCCGAAGGAGCGGGAUACAUGAGGAUCACCCAUGUACAUGAGGAUCAACAUGAACCCAGGUAGGUCGCGGAUUUUGUC [Exclusion Arginine B 3] | 300
53 | CGCCACAUGAGGAUCACCCAUGUAAUGGCGCGAGGACCGGUACGGCCGCCACUCGCCUGGCAGUGAGCGCAUGCGGCCUGGGUAU [Exclusion Tryp A GF9] | 13.3
54 | ACAUGAGGAUCACCCAUGUAGCCUAGGGAAGGAGCGUCGUAAGAGACAGGUAGGUCGCCCGCAUGUGGAUCACCCAUGUCGAGGG [SSArg A #11] | 48.3
55 | UGACAUGAGGAUCACCCAUGUUUAGAUGAACGAGGACCGGUACGGCCGCCACUCGAUAAGUGGAAAGAGCGAGGGAUCGCAUGCU [Same State Trp A GF5] | 17.5
56 | UCGCUCUGGGUGAAUCCCAGAGAUGUGGAAGGAGCGGACGAAAGUCCAGGUAGGUCGCCAUCGAACAUGAGGAUCACCCAUGUAC [Same State - Arginine A (Freestyle 26)] | 77.5
57 | ACUAGUUGUGCAGAUACCAGACAUGAGGAUCACCCAUGUUUGGGAUCUAAUGAUCAUCUUGUCCCUUGGCAGCUGUACAUCUAGA [Omei Theo B Exc v1] | 72.6
